In US20240293512A1 (HANMI PHARM, published 2024):
Bridge positions count the residues as written; N and C are the ends. Square brackets hold non-standard residues; d marks the D form. Ends that are not written are not given here. * marks the point of attachment. Acetyl(2-(4-imidazolyl)) = O=C(Cc1c[nH]cn1)*; Aib = CC(C)(N)C(=O)O

B1: triple agonist of SEQ ID NO: 66 (peptide)
peptide: Y[Aib]QGTFTSDYSKYLDECRAKDFVQWLLDHHPSSGQPPPS
modifications: bridge 16-20
B2: triple agonist of SEQ ID NO: 68 (peptide)
peptide: Y[Aib]QGTFTSDYSKCLDEKAAKEFVQWLLDHHPSSGQPPPS
modifications: bridge 16-20
B3: triple agonist of SEQ ID NO: 75 (peptide)
peptide: Y[Aib]QGTFTSDYSKYLDEKAAKEFVQWLLDHHPSSGQPPPSC
modifications: bridge 16-20
B4: triple agonist of SEQ ID NO: 69 (peptide)
peptide: Y[Aib]QGTFTSDYSKCLDERAAKEFVQWLLDHHPSSGQPPPS
modifications: bridge 16-20
B5: triple agonist of SEQ ID NO: 77 (peptide)
peptide: Y[Aib]QGTFTSDYSKYLDEKAAKDFVQWLLDHHPSSGQPPPSC
modifications: bridge 16-20
B6: triple agonist of SEQ ID NO: 61 (peptide)
peptide: {Acetyl(2-(4-imidazolyl))}-[Aib]QGTFTSDYSIAMDEIACKDFVNWLLNTK
modifications: bridge 15-19
B7: triple agonist of SEQ ID NO: 65 (peptide)
peptide: H[Aib]QGTFTSDYSKCLDEKRAKEFVQWLLDHHPSSGQPPPS
modifications: bridge 16-20
B8: triple agonist of SEQ ID NO: 64 (peptide)
peptide: Y[Aib]QGTFTSDYSKYLDECAAKEFVQWLLDHHPSSGQPPPS
modifications: bridge 16-20
B9: triple agonist of SEQ ID NO: 72 (peptide)
peptide: Y[Aib]QGTFTSDCSKYLDERAAKDFVQWLLDHHPSSGQPPPS
modifications: bridge 16-20
B10: triple agonist of SEQ ID NO: 73 (peptide)
peptide: {Acetyl(2-(4-imidazolyl))}-[Aib]QGTFTSDYSKYLDECRAKEFVQWLLDHHPSSGQPPPS
modifications: bridge 15-19
B11: triple agonist of SEQ ID NO: 71 (peptide)
peptide: Y[Aib]QGTFTSDYSKYLDERACKDFVQWLLDHHPSSGQPPPS
modifications: bridge 16-20
B12: triple agonist of SEQ ID NO: 8 (peptide)
peptide: H[Aib]QGTFTSDVSKYLDGQAAQEFVAWLLKGC
B13: triple agonist of SEQ ID NO: 62 (peptide)
peptide: {Acetyl(2-(4-imidazolyl))}-[Aib]QGTFTSDKSKYLDERAAQDFVQWLLDGGPSSGAPPPS
B14: triple agonist of SEQ ID NO: 74 (peptide)
peptide: {Acetyl(2-(4-imidazolyl))}-[Aib]QGTFTSDYSKCLDEKRAKEFVQWLLDHHPSSGQPPPS
modifications: bridge 15-19
B15: triple agonist of SEQ ID NO: 76 (peptide)
peptide: Y[Aib]QGTFTSDYSKYLDEKRAKDFVQWLLDHHPSSGQPPPSC
modifications: bridge 16-20
B16: triple agonist of SEQ ID NO: 67 (peptide)
peptide: Y[Aib]QGTFTSDYSKYLDECAAKDFVQWLLDHHPSSGQPPPS
modifications: bridge (positions not given here); ends not checked; also: ring formation between two underlined residues
B17: triple agonist of SEQ ID NO: 59 (peptide)
peptide: {Acetyl(2-(4-imidazolyl))}-[Aib]QGTFTSDYSICMDEKHQKDFVNWLLNTK
modifications: bridge 15-19
B18: triple agonist of SEQ ID NO: 60 (peptide)
peptide: {Acetyl(2-(4-imidazolyl))}-[Aib]QGTFTSDYSIAMDEKHCKDFVNWLLNTK
modifications: bridge 15-19
B19: triple agonist of SEQ ID NO: 70 (peptide)
peptide: Y[Aib]QGTFTSDYSKCLDEKRAKDFVQWLLDHHPSSGQPPPS
modifications: bridge 16-20
B20: triple agonist of SEQ ID NO: 63 (peptide)
peptide: {Acetyl(2-(4-imidazolyl))}-[Aib]QGTFTSDCSKYLDERAAQDFVQWLLDGGPSSGAPPPS
B21: triple agonist of SEQ ID NO: 7 (peptide)
peptide: H[Aib]QGTFTSDVSKYLDGQAAKEFVAWLLKGC

Each binder was assayed against human GLP-1 receptor (human, UniProt P43220 24-463) (assay: cell-based or functional assay).

Binder	In vitro activity compared with native peptide (%) vs GLP-1 (cAMP EC50)
B1	15.8%
B2	27.9%
B3	35.1%
B4	24.3%
B5	38.7%
B6	59.8%
B7	95.4%
B8	64.6%
B9	11.5%
B10	22.6%
B11	90.1%
B12	14.2%
B13	5.2%
B14	12.9%
B15	10.3%
B16	28.5%
B17	40.3%
B18	106%
B19	15.1%
B20	15.3%
B21	13.7%

The binders below were run against human GCG receptor (human, UniProt P47871 26-477) (assay: cell-based or functional assay).
Sequence of human GCG receptor (P47871 26-477): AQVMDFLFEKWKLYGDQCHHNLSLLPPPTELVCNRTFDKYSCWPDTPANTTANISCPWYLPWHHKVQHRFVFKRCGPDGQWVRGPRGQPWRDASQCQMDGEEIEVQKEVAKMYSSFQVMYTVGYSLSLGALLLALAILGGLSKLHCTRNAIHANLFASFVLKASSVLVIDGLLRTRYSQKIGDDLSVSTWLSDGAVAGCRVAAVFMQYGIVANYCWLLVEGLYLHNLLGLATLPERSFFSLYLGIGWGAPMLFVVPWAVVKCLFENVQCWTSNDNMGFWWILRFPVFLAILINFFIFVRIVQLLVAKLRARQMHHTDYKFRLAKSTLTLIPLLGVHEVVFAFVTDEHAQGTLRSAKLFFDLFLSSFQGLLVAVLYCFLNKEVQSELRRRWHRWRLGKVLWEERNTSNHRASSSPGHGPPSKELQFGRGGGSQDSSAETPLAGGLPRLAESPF

Binder	In vitro activity compared with native peptide (%) vs Glucagon (cAMP EC50)
B1	172%
B2	8.8%
B3	8.5%
B4	9.6%
B5	12.2%
B6	< 0.1%
B7	25.2%
B8	60.1%
B9	1%
B10	5.4%
B11	12.7%
B12	0.1%
B13	< 0.1%
B14	0.9%
B15	47.6%
B16	46.2%
B17	< 0.1%
B18	< 0.1%
B19	71.3%
B20	< 0.1%
B21	< 0.1%

What follows are binders tested against T1, human GIP receptor (human, UniProt P48546 22-466) (assay: cell-based or functional assay).
T1 sequence (looked up): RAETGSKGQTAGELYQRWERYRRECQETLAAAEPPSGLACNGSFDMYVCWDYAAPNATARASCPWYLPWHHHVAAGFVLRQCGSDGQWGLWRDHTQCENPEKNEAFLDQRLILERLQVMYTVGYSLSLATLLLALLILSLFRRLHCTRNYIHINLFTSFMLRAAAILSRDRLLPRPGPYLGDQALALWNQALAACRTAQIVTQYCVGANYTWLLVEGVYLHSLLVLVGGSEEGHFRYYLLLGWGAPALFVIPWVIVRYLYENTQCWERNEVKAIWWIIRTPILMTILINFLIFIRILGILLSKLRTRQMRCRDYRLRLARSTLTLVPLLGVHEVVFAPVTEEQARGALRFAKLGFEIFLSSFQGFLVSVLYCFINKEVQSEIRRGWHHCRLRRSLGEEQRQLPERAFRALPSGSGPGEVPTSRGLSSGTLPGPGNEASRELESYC

Binder	In vitro activity compared with native peptide (%) vs GIP (cAMP EC50)
B1	17.2%
B2	107%
B3	18%
B4	62.8%
B5	35.5%
B6	2.8%
B7	11.6%
B8	92.9%
B9	1.6%
B10	3%
B11	94.7%
B12	< 0.1%
B13	< 0.1%
B14	1%
B15	11.7%
B16	39.8%
B17	4%
B18	8.2%
B19	64.4%
B20	< 0.1%
B21	< 0.1%
